# Laboratory results reported in article doi:10.1101/2021.09.27.461913v1.
# System: O=c1[nH]c(=O)c2[nH]cnc2[nH]1
# Test: cells, lysate or membranes
# Details: labelled compound
substance,measurement,value
UapA (Aspergillus nidulans FGSC A4),Km,6 ± 2 µM
